± gives the uncertainty stated by the source.
B1: POU domain, class 4, transcription factor 1, residues 266 to 347; numbered along this chain, Q01851 (parent)
chain: RELEAFAERFKQRRIKLGVTQADVGSALANLKIPGVGSLSQSTICRFESLTLSHNNMIALKPILQAWLEEAEGAQREKMNKP
B2: Pituitary-specific positive transcription factor 1, residues 130 to 198; numbered along this chain, P28069 (parent)
chain: RELEKFANEFKVRRIKLGYTQTNVGEALAAVHGSEFSQTTICRFENLQLSFKNACKLKAILSKWLEEAE

Variants of: B1
Assay: abundance fitness (aPCA) (normalised: wild type 0, dead -1); higher = more abundant; growth selection in yeast, the domain comes from the species named
Conditions: Homo sapiens

E2I and E2C are within error of each other in abundance fitness: -0.266 ± 0.062 for the first, -0.306 ± 0.046 for the second.

Compared with E2K, E2N is higher in abundance fitness: -0.069 ± 0.04 for the first, 0.025 ± 0.049 for the second.

E2R and E2H are within error of each other in abundance fitness: -0.266 ± 0.026 for the first, -0.194 ± 0.048 for the second.

Compared with E2Q, E2L is lower in abundance fitness: -0.16 ± 0.033 for the first, -0.332 ± 0.032 for the second.

First: E2P
Second: E2Y
The abundance fitness of the first is lower: -0.437 ± 0.04 for the first, -0.236 ± 0.055 for the second.

Going from E2F to E2D, the abundance fitness rises from -0.245 ± 0.07 to 0.023 ± 0.039.

First: E2V
Second: E2A
The abundance fitness of the first is lower: -0.345 ± 0.029 for the first, -0.267 ± 0.028 for the second.

First: F6D
Second: F6I
The abundance fitness of the first is lower: -0.442 ± 0.041 for the first, -0.318 ± 0.051 for the second.

First: F6E
Second: F6R
The abundance fitness of the first is higher: -0.359 ± 0.03 for the first, -0.987 ± 0.042 for the second.

First: F6T
Second: F6V
The abundance fitness of the first is lower: -0.452 ± 0.037 for the first, -0.378 ± 0.026 for the second.

Compared with F6S, F6W is higher in abundance fitness: -0.516 ± 0.032 for the first, -0.139 ± 0.026 for the second.

First: F6Q
Second: F6L
The abundance fitness of the first is lower: -0.622 ± 0.047 for the first, -0.362 ± 0.027 for the second.

F6P and F6N are within error of each other in abundance fitness: -0.951 ± 0.071 for the first, -0.79 ± 0.098 for the second.

F6G and F6K are within error of each other in abundance fitness: -0.906 ± 0.034 for the first, -1 ± 0.086 for the second.

F6C and K11F are within error of each other in abundance fitness: -0.478 ± 0.039 for the first, -0.627 ± 0.2 for the second.

K11E and K11G are within error of each other in abundance fitness: -0.476 ± 0.11 for the first, -0.465 ± 0.061 for the second.

Compared with K11I, K11R is higher in abundance fitness: -0.293 ± 0.15 for the first, 0.023 ± 0.039 for the second.

Compared with K11H, K11V is lower in abundance fitness: 0.175 ± 0.18 for the first, -0.142 ± 0.056 for the second.

K11A and K11T are within error of each other in abundance fitness: -0.023 ± 0.056 for the first, -0.017 ± 0.093 for the second.

Going from K11P to K11L, the abundance fitness rises from -0.833 ± 0.24 to -0.406 ± 0.074.

Compared with K11W, K11S is higher in abundance fitness: -0.707 ± 0.12 for the first, -0.104 ± 0.065 for the second.

Going from K11M to K11N, the abundance fitness falls from -0.117 ± 0.08 to -0.422 ± 0.22.

First: K11Q
Second: K11Y
The abundance fitness of the first is higher: -0.107 ± 0.12 for the first, -0.642 ± 0.36 for the second.

L3Y and L3V are within error of each other in abundance fitness: -0.107 ± 0.084 for the first, -0.053 ± 0.038 for the second.

Compared with L3N, L3M is higher in abundance fitness: -0.287 ± 0.12 for the first, -0.029 ± 0.048 for the second.

First: L3G
Second: L3W
The abundance fitness of the first is lower: -0.523 ± 0.04 for the first, -0.352 ± 0.044 for the second.

First: L3C
Second: L3R
The abundance fitness of the first is lower: -0.901 ± 0.22 for the first, -0.622 ± 0.046 for the second.

First: L3K
Second: L3Q
The abundance fitness of the first is lower: -0.564 ± 0.094 for the first, -0.262 ± 0.052 for the second.

Compared with L3S, L3T is higher in abundance fitness: -0.374 ± 0.052 for the first, -0.26 ± 0.057 for the second.

L3H and L3I are within error of each other in abundance fitness: -0.203 ± 0.12 for the first, -0.02 ± 0.1 for the second.

L3F and L3A are within error of each other in abundance fitness: -0.103 ± 0.065 for the first, -0.162 ± 0.042 for the second.

L3D and L3E are within error of each other in abundance fitness: -0.366 ± 0.099 for the first, -0.247 ± 0.043 for the second.

R13E and R13I are within error of each other in abundance fitness: -0.065 ± 0.056 for the first, -0.09 ± 0.064 for the second.

Going from R13F to R13T, the abundance fitness rises from -0.203 ± 0.066 to 0.008 ± 0.042.

First: R13C
Second: R13L
The abundance fitness of the first is lower: -0.369 ± 0.048 for the first, -0.148 ± 0.037 for the second.

R13Q and R13N are within error of each other in abundance fitness: -0.053 ± 0.05 for the first, -0.156 ± 0.062 for the second.

First: R13P
Second: R13A
The abundance fitness of the first is lower: -1.06 ± 0.2 for the first, -0.026 ± 0.035 for the second.

R13D and R13W are within error of each other in abundance fitness: -0.253 ± 0.061 for the first, -0.321 ± 0.05 for the second.

R13M and R13H are within error of each other in abundance fitness: -0.023 ± 0.057 for the first, -0.103 ± 0.062 for the second.

R13S and R13K are within error of each other in abundance fitness: 0.014 ± 0.038 for the first, -0.048 ± 0.051 for the second.

Compared with R13G, R13V is lower in abundance fitness: 0.013 ± 0.033 for the first, -0.065 ± 0.035 for the second.

Variants of: B2
Assay: as above
Conditions: Homo sapiens

T39K and V12S are within error of each other in abundance fitness: 0.052 ± 0.17 for the first, 0.089 ± 0.076 for the second.

K52V and K52D are within error of each other in abundance fitness: 0.073 ± 0.077 for the first, 0.075 ± 0.072 for the second.

K52I and A68L are within error of each other in abundance fitness: -0.463 ± 0.27 for the first, -0.778 ± 0.17 for the second.

Compared with S50G, E35V is lower in abundance fitness: 0.035 ± 0.042 for the first, -0.306 ± 0.055 for the second.

S37A and E4C are within error of each other in abundance fitness: -0.607 ± 0.076 for the first, -0.552 ± 0.21 for the second.

First: R43D
Second: R43S
The abundance fitness of the first is higher: 0.112 ± 0.16 for the first, -0.416 ± 0.077 for the second.

Going from R43E to R43N, the abundance fitness falls from 0.119 ± 0.097 to -0.085 ± 0.1.

C42V and L3F are within error of each other in abundance fitness: -0.336 ± 0.054 for the first, -0.472 ± 0.12 for the second.

K11M and K11G are within error of each other in abundance fitness: -0.546 ± 0.16 for the first, -0.6 ± 0.11 for the second.

E66C and E66Y are within error of each other in abundance fitness: -0.108 ± 0.077 for the first, -0.304 ± 0.12 for the second.

L47W and L47P are within error of each other in abundance fitness: -0.789 ± 0.22 for the first, -0.804 ± 0.25 for the second.

Compared with L47G, L61S is lower in abundance fitness: 0.292 ± 0.063 for the first, -0.815 ± 0.14 for the second.

L49A and L49W are within error of each other in abundance fitness: -0.964 ± 0.19 for the first, -1.15 ± 0.43 for the second.

E9V and V24M are within error of each other in abundance fitness: -0.65 ± 0.1 for the first, -0.851 ± 0.26 for the second.

V24Y and F36C are within error of each other in abundance fitness: -0.767 ± 0.29 for the first, -0.526 ± 0.33 for the second.

First: F36H
Second: T22W
The abundance fitness of the first is lower: -0.747 ± 0.41 for the first, 0.18 ± 0.16 for the second.

Going from T22S to T22G, the abundance fitness falls from 0.106 ± 0.055 to -0.052 ± 0.1.

S34R and S34H are within error of each other in abundance fitness: -0.038 ± 0.093 for the first, 0.039 ± 0.23 for the second.

Compared with V31P, V31Q is higher in abundance fitness: -0.912 ± 0.19 for the first, -0.033 ± 0.067 for the second.

First: G25L
Second: G25I
The abundance fitness of the first is lower: -0.692 ± 0.088 for the first, -0.184 ± 0.15 for the second.

G25M and A27V are within error of each other in abundance fitness: -0.468 ± 0.11 for the first, -0.662 ± 0.17 for the second.

A27Y and A27I are within error of each other in abundance fitness: -0.144 ± 0.08 for the first, -0.166 ± 0.15 for the second.

A27F and A54C are within error of each other in abundance fitness: -0.437 ± 0.17 for the first, -0.382 ± 0.33 for the second.

Compared with A30D, Q21H is higher in abundance fitness: -0.457 ± 0.11 for the first, -0.164 ± 0.12 for the second.

L17R and R13V are within error of each other in abundance fitness: -0.803 ± 0.11 for the first, -0.734 ± 0.1 for the second.

Going from R13A to N46V, the abundance fitness falls from -0.179 ± 0.073 to -0.661 ± 0.31.

Compared with N46Y, N46A is higher in abundance fitness: -0.732 ± 0.35 for the first, -0.15 ± 0.1 for the second.

Going from I15E to I15G, the abundance fitness falls from -0.014 ± 0.11 to -0.404 ± 0.087.

Going from C55E to C55G, the abundance fitness falls from -0.07 ± 0.067 to -0.395 ± 0.062.

Going from Y19K to K56V, the abundance fitness rises from -0.674 ± 0.21 to -0.135 ± 0.069.

G33K and E26G are within error of each other in abundance fitness: -0.85 ± 0.28 for the first, -0.771 ± 0.29 for the second.

Compared with E26D, E45H is lower in abundance fitness: 0.205 ± 0.13 for the first, -1.17 ± 0.32 for the second.

F6V and F6N are within error of each other in abundance fitness: -0.941 ± 0.11 for the first, -0.88 ± 0.21 for the second.

First: K58H
Second: K58E
The abundance fitness of the first is higher: -0.4 ± 0.14 for the first, -0.738 ± 0.093 for the second.

K58M and F51A are within error of each other in abundance fitness: -0.151 ± 0.059 for the first, -0.174 ± 0.099 for the second.

First: F51D
Second: N8G
The abundance fitness of the first is higher: -0.001 ± 0.1 for the first, -0.336 ± 0.12 for the second.

First: G18Y
Second: T40V
The abundance fitness of the first is lower: -0.825 ± 0.28 for the first, -0.314 ± 0.083 for the second.

E67C and E67R are within error of each other in abundance fitness: -0.301 ± 0.073 for the first, -0.172 ± 0.058 for the second.

Compared with A29K, A29Y is lower in abundance fitness: -0.202 ± 0.086 for the first, -0.609 ± 0.2 for the second.

Compared with S62C, L57I is higher in abundance fitness: -0.3 ± 0.062 for the first, 0.013 ± 0.06 for the second.

First: L57D
Second: I41C
The abundance fitness of the first is lower: -0.67 ± 0.1 for the first, -0.444 ± 0.12 for the second.

I41S and I41Q are within error of each other in abundance fitness: -0.866 ± 0.15 for the first, -0.785 ± 0.33 for the second.

In the case of I41P, the abundance fitness is reported as -0.897 ± 0.35.
